From article PMC12379891 come the findings set out here.

This assay has as its target AeCRK^G359E (kinase-dead cysteine-rich receptor-like kinase of Aeschynomene evenia), mCherry-tagged and YFP-tagged copies (Aeschynomene evenia). Put plainly: co-IP.

“AeCRK^G359E (kinase-dead cysteine-rich receptor-like kinase of Aeschynomene evenia), mCherry-tagged and YFP-tagged copies”: the fold enrichment in the co-IP over the negative control MtLYK3-CFP was 7.37 fold.

As to “AeRLCK2-YFP (receptor-like cytoplasmic kinase 2 of Aeschynomene evenia) (natural protein)”, the fold enrichment in the co-IP over the negative control MtLYK3-CFP is 2.9 fold.
